What was measured:
mouse megalin [1] = target: T1, mouse megalin (mouse, UniProt A2ARV4 26-4660); test: cell-based or functional assay
mouse megalin [2] = target: T1, mouse megalin; test: cell-based or functional assay; remark: listed apart in the source
[3] = target: the molecule itself; test: Western blot of purified NGAL and of NGAL recovered from mouse urine, homodimer band against monomer band
Description: FIGS. 22A-22B. FIG. 22A. Left: Western blot of different species of NGAL. Wild type NGAL forms protein dimers (46-50 KDa) from monomers (at 23-25 KDa). Similarly the Mutant1 (K3 NGAL) forms dimers from monomers. However, Mutant2 (K3Cys) only forms monomers. Right. NGAL proteins (Wt, Mut1 and Mut2) were injected into mice, and the NGAL proteins in the urine (uWt=urinary wild-type protein; uMut1=urinary Mut1 K3 and uMut2=urinary Mut2 K3Cys) were collected at two different time points, and analyzed by Western Blot. For each protein (uWt, uMut1 and uMut2), the 1st lane on the Western blot represents proteins that were collected in the urine 20 min. after the injection and the 2nd lane on the Western blot represents proteins that were collected from the mouse at 180 min. after the injection. Very low levels of uWt appear in urine, whereas higher levels of both uMut1 and uMut2 appear in urine. uMut1 forms both monomers and dimers, whereas uMut2 only forms monomers. FIG. 22B. Mice were injected with NGAL proteins (Wt, Mut1 and Mut2) that were labeled with the dye Alexa Fluor™ 568 (Molecular Probes-Invitrogen), which covalently attaches to the proteins. […]

T1 sequence (A2ARV4 26-4660 limits assumed): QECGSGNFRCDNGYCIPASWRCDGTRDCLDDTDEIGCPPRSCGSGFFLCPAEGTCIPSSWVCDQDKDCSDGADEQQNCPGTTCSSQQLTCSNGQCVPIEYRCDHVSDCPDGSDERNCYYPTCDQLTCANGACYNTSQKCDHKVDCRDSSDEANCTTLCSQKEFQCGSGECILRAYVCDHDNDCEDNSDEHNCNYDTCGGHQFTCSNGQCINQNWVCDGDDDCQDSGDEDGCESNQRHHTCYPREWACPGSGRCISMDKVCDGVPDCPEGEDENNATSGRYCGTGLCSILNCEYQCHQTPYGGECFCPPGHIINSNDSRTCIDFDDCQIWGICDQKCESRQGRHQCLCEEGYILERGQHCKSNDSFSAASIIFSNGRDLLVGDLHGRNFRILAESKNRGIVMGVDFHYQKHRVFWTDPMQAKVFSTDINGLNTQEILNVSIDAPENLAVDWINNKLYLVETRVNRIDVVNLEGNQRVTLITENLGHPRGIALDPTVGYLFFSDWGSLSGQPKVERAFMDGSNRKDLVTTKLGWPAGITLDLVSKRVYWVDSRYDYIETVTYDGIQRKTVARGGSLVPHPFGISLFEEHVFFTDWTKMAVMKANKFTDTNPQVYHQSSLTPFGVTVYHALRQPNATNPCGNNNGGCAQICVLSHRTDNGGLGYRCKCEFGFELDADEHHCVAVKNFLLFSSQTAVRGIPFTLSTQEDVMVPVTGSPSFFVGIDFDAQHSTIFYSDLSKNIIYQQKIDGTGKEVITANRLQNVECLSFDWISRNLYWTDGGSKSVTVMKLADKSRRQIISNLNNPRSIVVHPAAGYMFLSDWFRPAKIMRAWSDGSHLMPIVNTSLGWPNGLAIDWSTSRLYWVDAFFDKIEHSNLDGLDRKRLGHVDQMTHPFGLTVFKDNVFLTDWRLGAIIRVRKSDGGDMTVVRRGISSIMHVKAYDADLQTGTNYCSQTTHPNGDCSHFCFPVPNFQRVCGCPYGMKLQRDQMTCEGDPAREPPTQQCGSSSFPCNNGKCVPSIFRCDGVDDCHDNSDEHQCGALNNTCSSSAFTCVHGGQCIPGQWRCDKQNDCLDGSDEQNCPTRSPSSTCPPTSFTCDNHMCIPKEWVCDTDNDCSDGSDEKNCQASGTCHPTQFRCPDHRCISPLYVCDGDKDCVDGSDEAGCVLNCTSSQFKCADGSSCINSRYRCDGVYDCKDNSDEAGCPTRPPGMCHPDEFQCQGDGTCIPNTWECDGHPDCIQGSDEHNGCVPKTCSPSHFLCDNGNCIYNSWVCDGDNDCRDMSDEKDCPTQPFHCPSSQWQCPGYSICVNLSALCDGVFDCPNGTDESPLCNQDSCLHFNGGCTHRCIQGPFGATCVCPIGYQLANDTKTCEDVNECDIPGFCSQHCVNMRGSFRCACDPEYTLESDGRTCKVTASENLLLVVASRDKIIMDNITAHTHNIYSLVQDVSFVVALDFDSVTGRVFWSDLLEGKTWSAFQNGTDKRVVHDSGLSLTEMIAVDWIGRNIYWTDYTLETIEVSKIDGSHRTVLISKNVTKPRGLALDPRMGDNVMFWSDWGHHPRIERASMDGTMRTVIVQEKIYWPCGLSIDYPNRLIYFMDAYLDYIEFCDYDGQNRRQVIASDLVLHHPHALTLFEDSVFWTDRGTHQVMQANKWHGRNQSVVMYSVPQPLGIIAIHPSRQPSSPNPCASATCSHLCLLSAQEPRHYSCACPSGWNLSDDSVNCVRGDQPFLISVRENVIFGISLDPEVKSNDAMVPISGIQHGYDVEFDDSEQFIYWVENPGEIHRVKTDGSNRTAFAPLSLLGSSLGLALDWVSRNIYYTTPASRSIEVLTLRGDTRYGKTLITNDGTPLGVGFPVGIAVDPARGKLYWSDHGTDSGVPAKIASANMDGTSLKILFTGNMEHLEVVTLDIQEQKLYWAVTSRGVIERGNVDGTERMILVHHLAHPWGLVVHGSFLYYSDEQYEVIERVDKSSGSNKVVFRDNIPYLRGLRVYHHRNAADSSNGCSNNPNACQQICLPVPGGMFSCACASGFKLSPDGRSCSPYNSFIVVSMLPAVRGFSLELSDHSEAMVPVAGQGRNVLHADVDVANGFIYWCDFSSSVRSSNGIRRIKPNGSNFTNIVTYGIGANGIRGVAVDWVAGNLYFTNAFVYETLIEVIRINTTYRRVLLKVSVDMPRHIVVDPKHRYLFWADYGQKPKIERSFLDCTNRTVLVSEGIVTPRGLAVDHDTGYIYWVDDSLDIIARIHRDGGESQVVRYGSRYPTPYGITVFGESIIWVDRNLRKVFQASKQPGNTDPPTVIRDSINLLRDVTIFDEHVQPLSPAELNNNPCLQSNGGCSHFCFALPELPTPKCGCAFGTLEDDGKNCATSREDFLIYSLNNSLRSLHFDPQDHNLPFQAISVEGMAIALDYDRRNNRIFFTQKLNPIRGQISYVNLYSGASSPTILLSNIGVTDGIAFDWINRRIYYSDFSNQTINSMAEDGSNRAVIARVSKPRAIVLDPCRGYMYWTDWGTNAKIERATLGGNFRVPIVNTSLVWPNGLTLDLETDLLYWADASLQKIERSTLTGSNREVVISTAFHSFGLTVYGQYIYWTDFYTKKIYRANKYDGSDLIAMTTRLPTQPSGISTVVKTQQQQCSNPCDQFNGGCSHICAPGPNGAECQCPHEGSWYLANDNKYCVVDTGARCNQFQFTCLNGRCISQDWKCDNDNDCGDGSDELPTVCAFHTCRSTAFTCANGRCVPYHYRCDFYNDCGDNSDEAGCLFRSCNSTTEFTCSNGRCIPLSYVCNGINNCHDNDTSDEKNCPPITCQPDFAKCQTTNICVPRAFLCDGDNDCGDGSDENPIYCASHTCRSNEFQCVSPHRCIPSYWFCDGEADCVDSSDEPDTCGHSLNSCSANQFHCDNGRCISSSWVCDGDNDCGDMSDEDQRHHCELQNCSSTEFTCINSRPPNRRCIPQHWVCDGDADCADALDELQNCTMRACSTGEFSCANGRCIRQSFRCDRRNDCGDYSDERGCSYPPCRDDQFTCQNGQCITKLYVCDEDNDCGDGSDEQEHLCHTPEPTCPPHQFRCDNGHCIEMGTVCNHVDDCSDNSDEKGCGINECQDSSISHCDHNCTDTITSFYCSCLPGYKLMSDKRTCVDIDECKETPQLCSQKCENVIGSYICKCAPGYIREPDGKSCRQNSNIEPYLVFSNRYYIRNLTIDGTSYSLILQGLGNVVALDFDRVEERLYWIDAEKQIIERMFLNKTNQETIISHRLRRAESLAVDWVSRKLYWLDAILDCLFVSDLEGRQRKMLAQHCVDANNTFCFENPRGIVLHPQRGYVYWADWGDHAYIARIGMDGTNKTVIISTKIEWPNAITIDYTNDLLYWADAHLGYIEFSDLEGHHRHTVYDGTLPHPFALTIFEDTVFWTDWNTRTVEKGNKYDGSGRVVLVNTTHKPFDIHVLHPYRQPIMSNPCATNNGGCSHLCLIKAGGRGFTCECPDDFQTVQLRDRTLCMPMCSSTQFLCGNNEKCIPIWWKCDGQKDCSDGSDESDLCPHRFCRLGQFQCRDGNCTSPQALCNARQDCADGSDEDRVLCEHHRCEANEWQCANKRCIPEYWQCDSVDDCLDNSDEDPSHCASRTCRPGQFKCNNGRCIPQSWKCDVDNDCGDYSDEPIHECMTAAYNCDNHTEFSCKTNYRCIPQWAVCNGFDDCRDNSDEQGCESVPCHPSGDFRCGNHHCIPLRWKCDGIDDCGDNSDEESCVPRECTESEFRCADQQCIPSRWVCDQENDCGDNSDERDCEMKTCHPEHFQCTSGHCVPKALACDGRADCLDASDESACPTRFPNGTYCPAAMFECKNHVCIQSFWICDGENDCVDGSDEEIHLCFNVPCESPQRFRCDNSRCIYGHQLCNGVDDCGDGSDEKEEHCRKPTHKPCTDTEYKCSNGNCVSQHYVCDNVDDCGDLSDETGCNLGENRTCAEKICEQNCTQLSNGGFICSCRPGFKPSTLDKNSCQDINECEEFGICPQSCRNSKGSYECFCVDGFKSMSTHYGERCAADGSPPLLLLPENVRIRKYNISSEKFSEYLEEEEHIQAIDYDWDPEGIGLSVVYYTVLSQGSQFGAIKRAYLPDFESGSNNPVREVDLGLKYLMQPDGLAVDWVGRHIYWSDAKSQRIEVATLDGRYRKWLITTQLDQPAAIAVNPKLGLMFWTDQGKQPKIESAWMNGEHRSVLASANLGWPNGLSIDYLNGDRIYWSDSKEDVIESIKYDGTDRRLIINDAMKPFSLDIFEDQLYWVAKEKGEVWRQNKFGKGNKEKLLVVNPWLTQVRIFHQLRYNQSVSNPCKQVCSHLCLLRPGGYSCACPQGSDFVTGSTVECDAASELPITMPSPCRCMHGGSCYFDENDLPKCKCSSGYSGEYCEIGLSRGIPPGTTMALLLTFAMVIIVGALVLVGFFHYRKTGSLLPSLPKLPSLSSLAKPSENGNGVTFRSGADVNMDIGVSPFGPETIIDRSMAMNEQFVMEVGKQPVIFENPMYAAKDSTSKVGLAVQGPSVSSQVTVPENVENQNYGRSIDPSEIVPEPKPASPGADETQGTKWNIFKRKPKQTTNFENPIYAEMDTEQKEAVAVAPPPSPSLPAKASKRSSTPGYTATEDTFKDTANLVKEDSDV

Row | Binder | Accumulation 3 hours after i.p. injection (%): Urine (Ngal-enterochelin-55Fe3+ complex, C57BL/6 mice) (mouse megalin [1]) | percent of injected Ngal:Ent:59FeIII complex delivered to mouse urine in 3 hrs (mouse megalin [2]) | binding result [3]
1 | NGAL mutant B4 (ligand) QDSTSDLIPAPPLSKVPLQQNFQDNQFQGKWYVVGLAGNAILREDEDPQKMYATIYELKEDKSYNVTSVLFRKKKCDYWIRTFVPGCQPGEFTLGNIQSYPGLTSYLVRVVSTNYNQHAMVFFKKVSQNREYFKITLYGRTKELTSELKENFIRFSKSLGLPENHIVFPVPIDQCIDG | 0.13% |  | 
2 | NGAL mutant B3 (ligand) QDSTSDLIPAPPLSKVPLQQNFQDNQFQGKWYVVGLAGNAILREDEDPQKMYATIYELKEDKSYNVTSVLFRKKKCDYWIRTFVPGCQPGEFTLGNIKSYPGLTSYLVRVVSTNYNQHAMVFFKKVSQNREYFKITLYGRTKELTSELKENFIRFSKSLGLPENNIVFPVPIDQCIDG | 0.3% |  | 
3 | NGAL mutant C3 (ligand) QDSTSDLIPAPPLSSVPLQQNFQDNQFQGKWYVVGLAGNAILREDKDPQTMYATIYELKEDKSYNVTSVLFQKKKCDYWIRTFVPGCQPGEFTLGNIKSYPGLTSYLVRVVSTNYNQHAMVFFKKVSQNREYFKITLYGRTKELTSELQENFIRFSQSLGLPENHIVFPVPIDQCIDG | 0.44% |  | 

Continued, in another order:

Row | Accumulation 3 hours after i.p. injection (%): Urine (Ngal-enterochelin-55Fe3+ complex, C57BL/6 mice) (mouse megalin [1]) | percent of injected Ngal:Ent:59FeIII complex delivered to mouse urine in 3 hrs (mouse megalin [2]) | Binder | binding result [3]
4 | 19.6% | 23% | K3 NGAL mutant protein (ligand, Mutant of human NGAL, made in E. coli as for the wild type (GST fusion vector); Runs as monomer and dimer on Western blot; also called K6 (i.e, K3); Mut1) QDSTSDLIPAPPLSSVPLQQNFQDNQFQGKWYVVGLAGNAILREDEDPQKMYATIYELKEDKSYNVTSVLFRDDGCDYWIRTFVPGCQPGEFTLGNIQSYPGLTSYLVRVVSTNYNQFAMVFFKKVSQNQEYFKITLYGRTKELTSELQENFIRFSKSLGLPENNIVFPVPIDQCIDG | binds
5 |  | < 0.1% | wild-type human NGAL (Neutrophil Gelatinase-Associated Lipocalin) (ligand) QDSTSDLIPAPPLSKVPLQQNFQDNQFQGKWYVVGLAGNAILREDKDPQKMYATIYELKEDKSYNVTSVLFRKKKCDYWIRTFVPGCQPGEFTLGNIKSYPGLTSYLVRVVSTNYNQHAMVFFKKVSQNREYFKITLYGRTKELTSELKENFIRFSKSLGLPENHIVFPVPIDQCIDG | 
6 |  | ~100% | K3Cys protein (ligand, only monomers seen; also called K3Cys NGAL; Mut2) QDSTSDLIPAPPLSSVPLQQNFQDNQFQGKWYVVGLAGNAILREDEDPQKMYATIYELKEDKSYNVTSVLFRDDGCDYWIRTFVPGSQPGEFTLGNIQSYPGLTSYLVRVVSTNYNQFAMVFFKKVSQNQEYFKITLYGRTKELTSELQENFIRFSKSLGLPENNIVFPVPIDQCIDG | no binding
7 | 0.72% |  | NGAL mutant C1 (ligand) QDSTSDLIPAPPLSKVPLQQNFQDNQFQGKWYVVGLAGNAILREDKDPQTMYATIYELKEDKSYNVTSVLFQKKKCDYWIRTFVPGCQPGEFTLGNIKSYPGLTSYLVRVVSTNYNQHAMVFFKKVSQNQEYFKITLYGRTKELTSELQENFIRFSQSLGLPENHIVFPVPIDQCIDG | 

From patent US20230414709A1 (TRUSTEES OF COLUMBIA UNIVERSITY IN THE CITY OF NEW YORK, published 2023)
